Source: patent publication US20230364193A1, “COMBINED DRUG FOR TREATING CORONARIVUS DISEASE 2019” (SICHUAN UNIVERSITY WEST CHINA HOSPITAL, priority 2020, published 2023)
Where two headings read alike, the source gives them in different places.

What was measured:
SARS-CoV-2 virus [1] = assay: microbe, parasite or virus in culture; settings: Vero-E6
[2] = test system: patients with moderate or severe COVID-19; settings: for clinical improvement rate day 28, (%): called clinical remission rate in b66; for Time for clinical improvement (days), median: called clinical remission; for Time for radiographic improvement (days), median: chest CT, absorption of inflammation; for Time for Viral nucleic acid to turn negative (days), median: real-time fluorescence quantitative PCR; for serious adverse reaction (cases): safety analysis set, the IFN-α case was respiratory failure
SARS-CoV-2 virus [3] = settings: for EC50 Experiment 1 / EC50 Experiment 2 / EC50 Experiment 3 / EC50 means: Vero-E6; for EC50 means: mean of 3 experiments
Vero-E6 cells = assay: Cytotoxicity assay on Vero-E6 cells (CCK-8, 48 hours)
Protocol: • 1) Vero-E6 cells were inoculated in a 96-well plate at 1×10^4 cells per well the day before; • 2) The cell state was observed until the confluence reached about 50%. The rSIFN-co was diluted by 2.17-fold with 2×DMEM medium containing 4% […], as the highest concentration, namely 6×10^8 pg/ml.
The plates were cultured in an incubator at 37° C. and 5% CO2; • 4) 48 hours after adding the drug, 1/10 volume of Cell Counting […] (CCK-8) was directly added to the cell culture medium, mixed well, and air bubbles should be avoided. Cells were incubated in an incubator at 37° C. for 1 hour until the color turned into orange. The blank group was set as zero, and the absorbance at 450 nm was measured with a multifunctional microplate reader, and the survival rate was calculated as follows: survival rate (%)=OD450 of the test group/OD450 of the control group×100%.

[4] = day 7, percent of group, added to baseline treatment
[5] = day 14, percent of group, added to baseline treatment
[6] = day 28, percent of group, added to baseline treatment

CCN(CC)CCCC(C)Nc1ccnc2cc(Cl)ccc12 (stereo not shown) [Chloroquine]
EC50 (SARS-CoV-2 virus [1]; Severe acute respiratory syndrome coronavirus 2, Vero C1008, read-out: EC50 Experiment 1, MOI: 0.005 (50 PFU)): 1.7 µM
EC50 (SARS-CoV-2 virus [1]; Severe acute respiratory syndrome coronavirus 2, Vero C1008, read-out: EC50 Experiment 1, MOI: 0.05 (500 PFU)): 3.65 µM
EC50 (SARS-CoV-2 virus [1]; Severe acute respiratory syndrome coronavirus 2, Vero C1008, read-out: EC50 Experiment 1, MOI: 0.5 (5000 PFU)): 5.25 µM
EC50 (SARS-CoV-2 virus [1]; Severe acute respiratory syndrome coronavirus 2, Vero C1008, read-out: EC50 Experiment 2, MOI: 0.005 (50 PFU)): 1.77 µM
EC50 (SARS-CoV-2 virus [1]; Severe acute respiratory syndrome coronavirus 2, Vero C1008, read-out: EC50 Experiment 2, MOI: 0.05 (500 PFU)): 4.23 µM
EC50 (SARS-CoV-2 virus [1]; Severe acute respiratory syndrome coronavirus 2, Vero C1008, read-out: EC50 Experiment 2, MOI: 0.5 (5000 PFU)): 5.72 µM
EC50 (SARS-CoV-2 virus [1]; Severe acute respiratory syndrome coronavirus 2, Vero C1008, read-out: EC50 Experiment 3, MOI: 0.005 (50 PFU)): 2.34 µM
EC50 (SARS-CoV-2 virus [1]; Severe acute respiratory syndrome coronavirus 2, Vero C1008, read-out: EC50 Experiment 3, MOI: 0.05 (500 PFU)): 2.34 µM
EC50 (SARS-CoV-2 virus [1]; Severe acute respiratory syndrome coronavirus 2, Vero C1008, read-out: EC50 Experiment 3, MOI: 0.5 (5000 PFU)): 5.04 µM
EC50 (SARS-CoV-2 virus [1]; Severe acute respiratory syndrome coronavirus 2, Vero C1008, read-out: EC50 means, MOI: 0.005 (50 PFU), mean of 3 experiments): 1.94 µM
EC50 (SARS-CoV-2 virus [1]; Severe acute respiratory syndrome coronavirus 2, Vero C1008, read-out: EC50 means, MOI: 0.05 (500 PFU), mean of 3 experiments): 3.41 µM
EC50 (SARS-CoV-2 virus [1]; Severe acute respiratory syndrome coronavirus 2, Vero C1008, read-out: EC50 means, MOI: 0.5 (5000 PFU), mean of 3 experiments): 5.34 µM

IFN-α
Radiographic Improvement Rate Day 7, (%) ([2]; Day 7): (25.0) %
Rate for Viral nucleic acid to turn negative Day 7, (%) ([2]; Day 7): (31.3) %
Radiographic Improvement Rate Day 14, (%) ([2]; Day 14): (66.7) %
Rate for Viral nucleic acid to turn negative Day 14, (%) ([2]; Day 14): (64.6) %
Radiographic Improvement Rate Day 28, (%) ([2]; Day 28): (79.2) %
Rate for Viral nucleic acid to turn negative Day 28, (%) ([2]; Day 28): (85.4) %
clinical improvement rate day 7, (%) ([2]; day 7): (6.3) %
7-level scale on day 7, 2: Not hospitalized, but unable to return to normal activities, (%) [2, 4]: (12.5) %
7-level scale on day 7, 3: Hospitalized, no need for supplemental oxygen, (%) [2, 4]: (25.0) %
7-level scale on day 7, 4: Hospitalized, requiring supplemental oxygen, (%) [2, 4]: (43.8) %
7-level scale on day 7, 5: Hospitalized, requiring nasal high-flow oxygen therapy or non-invasive mechanical ventilation, (%) [2, 4]: (16.7) %
7-level scale on day 7, 6: Hospitalized, requiring extracorporeal membrane oxygenation, invasive mechanical ventilation, or both, (%) [2, 4]: (2.0) %
clinical improvement rate day 14, (%) ([2]; day 14): (39.6) %
7-level scale on day 14, 2: Not hospitalized, but unable to return to normal activities, (%) [2, 5]: (43.8) %
7-level scale on day 14, 3: Hospitalized, no need for supplemental oxygen, (%) [2, 5]: (31.2) %
7-level scale on day 14, 4: Hospitalized, requiring supplemental oxygen, (%) [2, 5]: (16.7) %
7-level scale on day 14, 5: Hospitalized, requiring nasal high-flow oxygen therapy or non-invasive mechanical ventilation, (%) [2, 5]: (6.3) %
7-level scale on day 14, 6: Hospitalized, requiring extracorporeal membrane oxygenation, invasive mechanical ventilation, or both, (%) [2, 5]: (2.0) %
clinical improvement rate day 28, (%) ([2]; day 28): 77.1%
clinical improvement rate day 28, (%) ([2]; day 28, listed as IFN- α): (77.1) %
7-level scale on day 28, 2: Not hospitalized, but unable to return to normal activities, (%) [2, 6]: (91.6) %
7-level scale on day 28, 3: Hospitalized, no need for supplemental oxygen, (%) [2, 6]: (2.1) %
7-level scale on day 28, 4: Hospitalized, requiring supplemental oxygen, (%) [2, 6]: (4.2) %
7-level scale on day 28, 6: Hospitalized, requiring extracorporeal membrane oxygenation, invasive mechanical ventilation, or both, (%) [2, 6]: (2.1) %
Deterioration rate, (%) ([2]; human, in vivo): (2.1) %
Time for clinical improvement (days), median ([2]; added to baseline treatment): 14.0 days
Time for radiographic improvement (days), median [2]: 10.0 days
Time for Viral nucleic acid to turn negative (days), median [2]: 10.0 days
serious adverse reaction (cases) [2]: 1

B1: rSIFN-co: new type of genetically engineered interferon produced by changing 65 bases of the genetic code of IFN-α; amino acid sequence SEQ ID NO.2 (protein)
chain: MCDLPQTHSLGNRRALILLAQMRRISPFSCLKDRHDFGFPQEEFDGNQFQKAQAISVLEMIQQTFNLFSTKDSSAAWDESLLEKFYTELYQQLNDLEACVIQEVGVEETPLMNVDSILAVKKYFQRITLYLTEKKYSPCAWEVVRAEIMRSFSLSTNLQERLRRKE
modifications: rSIFN-co Synthetic amino acid sequence
Radiographic Improvement Rate Day 7, (%) ([2]; Day 7): (43.5) %
Rate for Viral nucleic acid to turn negative Day 7, (%) ([2]; Day 7): (50.0) %
Radiographic Improvement Rate Day 7, differences (rate difference) ([2]; Day 7, rSIFN-co vs IFN-α): 18.5
Rate for Viral nucleic acid to turn negative Day 7, differences (rate difference) ([2]; Day 7, rSIFN-co vs IFN-α): 18.7
Radiographic Improvement Rate Day 14, (%) ([2]; Day 14): (84.8) %
Rate for Viral nucleic acid to turn negative Day 14, (%) ([2]; Day 14): (76.1) %
Radiographic Improvement Rate Day 14, differences (rate difference) ([2]; Day 14, rSIFN-co vs IFN-α): 18.1
Rate for Viral nucleic acid to turn negative Day 14, differences (rate difference) ([2]; Day 14, rSIFN-co vs IFN-α): 11.5
Radiographic Improvement Rate Day 28, (%) ([2]; Day 28): (91.3) %
Rate for Viral nucleic acid to turn negative Day 28, (%) ([2]; Day 28): (97.8) %
Radiographic Improvement Rate Day 28, differences (rate difference) ([2]; Day 28, rSIFN-co vs IFN-α): 12.1
Rate for Viral nucleic acid to turn negative Day 28, differences (rate difference) ([2]; Day 28, rSIFN-co vs IFN-α): 12.4
clinical improvement rate day 7, (%) ([2]; day 7): (10.9) %
7-level scale on day 7, 2: Not hospitalized, but unable to return to normal activities, (%) [2, 4]: (13.0) %
7-level scale on day 7, 3: Hospitalized, no need for supplemental oxygen, (%) [2, 4]: (19.6) %
7-level scale on day 7, 4: Hospitalized, requiring supplemental oxygen, (%) [2, 4]: (50.0) %
7-level scale on day 7, 5: Hospitalized, requiring nasal high-flow oxygen therapy or non-invasive mechanical ventilation, (%) [2, 4]: (17.4) %
clinical improvement rate day 7, differences (rate difference) ([2]; day 7, rSIFN-co vs IFN-α): 4.6
clinical improvement rate day 14, (%) ([2]; day 14): (65.2) %
7-level scale on day 14, 2: Not hospitalized, but unable to return to normal activities, (%) [2, 5]: (58.7) %
7-level scale on day 14, 3: Hospitalized, no need for supplemental oxygen, (%) [2, 5]: (21.7) %
7-level scale on day 14, 4: Hospitalized, requiring supplemental oxygen, (%) [2, 5]: (17.4) %
7-level scale on day 14, 5: Hospitalized, requiring nasal high-flow oxygen therapy or non-invasive mechanical ventilation, (%) [2, 5]: (2.2) %
clinical improvement rate day 14, differences (rate difference) ([2]; day 14, rSIFN-co vs IFN-α): 25.6
7-level scale on day 28, 2: Not hospitalized, but unable to return to normal activities, (%) [2, 6]: (95.6) %
7-level scale on day 28, 3: Hospitalized, no need for supplemental oxygen, (%) [2, 6]: (2.2) %
7-level scale on day 28, 4: Hospitalized, requiring supplemental oxygen, (%) [2, 6]: (2.2) %
clinical improvement rate day 28, differences (rate difference) ([2]; day 28, rSIFN-co vs IFN-α): 16.4
Time for clinical improvement (days), median ([2]; added to baseline treatment): 11.5 days
Time for radiographic improvement (days), median [2]: 8.0 days
Time for Viral nucleic acid to turn negative (days), median [2]: 7.0 days
Deterioration rate, differences (rate difference) ([2]; rSIFN-co vs IFN-α): −2.1
Time for Viral nucleic acid to turn negative, differences (hazard ratio) ([2]; rSIFN-co vs IFN-α, Cox model): 1.74
Time for clinical improvement, differences (hazard ratio) ([2]; rSIFN-co vs IFN-α, Cox model): 1.76
Time for radiographic improvement, differences (hazard ratio) ([2]; rSIFN-co vs IFN-α, Cox model): 2.19
serious adverse reaction (cases) [2]: no serious adverse reaction
TI (CC50/EC50) (SARS-CoV-2 virus [3]; MOI: 0.005 (50 PFU)): 5.35×10^7
EC50 Experiment 1 (SARS-CoV-2 virus [3]; MOI: 0.005 (50 PFU)): 0.01531 ng/mL
EC50 Experiment 2 (SARS-CoV-2 virus [3]; MOI: 0.005 (50 PFU)): 0.01401 ng/mL
EC50 Experiment 3 (SARS-CoV-2 virus [3]; MOI: 0.005 (50 PFU)): 0.01058 ng/mL
EC50 means (SARS-CoV-2 virus [3]; MOI: 0.005 (50 PFU)): 0.0133 ng/mL
TI (CC50/EC50) (SARS-CoV-2 virus [3]; MOI: 0.005 (50 PFU), listed as Recombinant super-compound interferon (rSIFN-co)): 5.35 × 10^7
TI (CC50/EC50) (SARS-CoV-2 virus [3]; MOI: 0.05 (500 PFU)): 5.77×10^6
EC50 Experiment 1 (SARS-CoV-2 virus [3]; MOI: 0.05 (500 PFU)): 0.1418 ng/mL
EC50 Experiment 2 (SARS-CoV-2 virus [3]; MOI: 0.05 (500 PFU)): 0.1257 ng/mL
EC50 Experiment 3 (SARS-CoV-2 virus [3]; MOI: 0.05 (500 PFU)): 0.1024 ng/mL
EC50 means (SARS-CoV-2 virus [3]; MOI: 0.05 (500 PFU)): 0.1233 ng/mL
TI (CC50/EC50) (SARS-CoV-2 virus [3]; MOI: 0.05 (500 PFU), listed as Recombinant super-compound interferon (rSIFN-co)): 5.77 × 10^6
TI (CC50/EC50) (SARS-CoV-2 virus [3]; MOI: 0.5 (5000 PFU)): 4.71×10^6
EC50 Experiment 1 (SARS-CoV-2 virus [3]; MOI: 0.5 (5000 PFU)): 0.1886 ng/mL
EC50 Experiment 2 (SARS-CoV-2 virus [3]; MOI: 0.5 (5000 PFU)): 0.1397 ng/mL
EC50 Experiment 3 (SARS-CoV-2 virus [3]; MOI: 0.5 (5000 PFU)): 0.1253 ng/mL
EC50 means (SARS-CoV-2 virus [3]; MOI: 0.5 (5000 PFU)): 0.1512 ng/mL
TI (CC50/EC50) (SARS-CoV-2 virus [3]; MOI: 0.5 (5000 PFU), listed as Recombinant super-compound interferon (rSIFN-co)): 4.71 × 10^6
inhibition of SARS-CoV-2 replication in Vero-E6 cell model (SARS-CoV-2 virus [3]; result in words): dose-dependent manner
CC50 Experiment 1 (Vero-E6 cells): 651000 ng/mL
CC50 Experiment 2 (Vero-E6 cells): 806000 ng/mL
CC50 Experiment 3 (Vero-E6 cells): 680000 ng/mL
CC50 means (Vero-E6 cells; mean of 3 experiments): 712000 ng/mL
